{"source": "IntAct's records for PubMed 31749804", "parents": {"B1": {"name": "Complement C1r subcomponent (Homo sapiens), P00736 (parent)", "chain": "MWLLYLLVPALFCRAGGSIPIPQKLFGEVTSPLFPKPYPNNFETTTVITVPTGYRVKLVFQQFDLEPSEGCFYDYVKISADKKSLGRFCGQLGSPLGNPPGKKEFMSQGNKMLLTFHTDFSNEENGTIMFYKGFLAYYQAVDLDECASRSKSGEEDPQPQCQHLCHNYVGGYFCSCRPGYELQEDTHSCQAECSSELYTEASGYISSLEYPRSYPPDLRCNYSIRVERGLTLHLKFLEPFDIDDHQQVHCPYDQLQIYANGKNIGEFCGKQRPPDLDTSSNAVDLLFFTDESGDSRGWKLRYTTEIIKCPQPKTLDEFTIIQNLQPQYQFRDYFIATCKQGYQLIEGNQVLHSFTAVCQDDGTWHRAMPRCKIKDCGQPRNLPNGDFRYTTTMGVNTYKARIQYYCHEPYYKMQTRAGSRESEQGVYTCTAQGIWKNEQKGEKIPRCLPVCGKPVNPVEQRQRIIGGQKAKMGNFPWQVFTNIHGRGGGALLGDRWILTAAHTLYPKEHEAQSNASLDVFLGHTNVEELMKLGNHPIRRVSVHPDYRQDESYNFEGDIALLELENSVTLGPNLLPICLPDNDTFYDLGLMGYVSGFGVMEEKIAHDLRFVRLPVANPQACENWLRGKNRMDVFSQNMFCAGHPSLKQDACQGDSGGVFAVRDPNTDRWVATGIVSWGIGCSRGYGFYTKVLNYVDWIKKEMEEED", "partner": "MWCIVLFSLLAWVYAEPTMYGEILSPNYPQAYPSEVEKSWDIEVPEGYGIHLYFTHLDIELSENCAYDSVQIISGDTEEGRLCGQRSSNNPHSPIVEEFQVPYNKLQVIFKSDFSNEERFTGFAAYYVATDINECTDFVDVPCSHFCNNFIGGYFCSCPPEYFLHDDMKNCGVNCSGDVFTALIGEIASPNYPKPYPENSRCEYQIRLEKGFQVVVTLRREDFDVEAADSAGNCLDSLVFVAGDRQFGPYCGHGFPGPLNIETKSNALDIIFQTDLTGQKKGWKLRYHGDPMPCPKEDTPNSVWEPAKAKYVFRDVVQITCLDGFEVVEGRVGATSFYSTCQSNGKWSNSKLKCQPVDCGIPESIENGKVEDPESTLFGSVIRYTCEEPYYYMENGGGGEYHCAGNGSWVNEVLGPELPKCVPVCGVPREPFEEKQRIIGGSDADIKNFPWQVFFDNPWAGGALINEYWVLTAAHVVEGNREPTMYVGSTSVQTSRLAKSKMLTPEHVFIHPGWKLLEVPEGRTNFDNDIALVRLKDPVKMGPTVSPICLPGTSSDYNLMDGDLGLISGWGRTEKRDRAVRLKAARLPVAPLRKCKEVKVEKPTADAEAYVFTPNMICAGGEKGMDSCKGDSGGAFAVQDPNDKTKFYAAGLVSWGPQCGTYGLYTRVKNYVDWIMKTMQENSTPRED"}}, "data": [{"variants_of": "B1", "settings": "with c1s_human C1S", "values": [{"variant": "D290G", "effect of a mutation on the interaction": "with no effect"}]}]}
